The values below are quoted from earlier work in paper PMC10103170.

In this data set the target is Ubiquitin (Homo sapiens) (UniProt P0CG48).

Sequence of ALIX V domain (Q8WUM4 360-702): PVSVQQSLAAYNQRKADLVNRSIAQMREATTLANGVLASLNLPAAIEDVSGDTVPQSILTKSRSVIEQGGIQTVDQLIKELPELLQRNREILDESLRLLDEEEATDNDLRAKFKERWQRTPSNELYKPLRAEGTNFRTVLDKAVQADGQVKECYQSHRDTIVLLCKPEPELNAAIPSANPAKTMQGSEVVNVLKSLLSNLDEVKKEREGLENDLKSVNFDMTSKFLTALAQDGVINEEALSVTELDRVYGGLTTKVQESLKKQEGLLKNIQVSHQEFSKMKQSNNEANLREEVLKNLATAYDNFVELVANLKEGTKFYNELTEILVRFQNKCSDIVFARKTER

The term Kd denotes the free concentration of one partner at which half of the binding sites on the other are occupied at equilibrium, for simple one-to-one binding. With ALIX V domain (from UniProt Q8WUM4), the Kd was 120 µM.
